Reference: patent US11311610B2, “Immune-modulating agents and uses therefor” (UNIVERSITY OF TECHNOLOGY SYDNEY, priority 2010, dated 2022)

Assays:
RAW264.7 cells = test: Binding of FITC-conjugated LPS to RAW 264.7 cells (flow cytometry); format: cell-based, murine; conditions: 0.1-10 μg/mL, 20 min at 4° C.
Method: FIG. 9 is a graphical representation showing LPS neutralization by FhHDM-1. The ability of FhHDM-1 (Δ), FhHDM-1 p1 (●) or FhHDM-1 p3 (▪) to bind to LPS was investigated by (A) incubating a range of concentrations of proteins (0.02-2 μg/well) in an LPS-coated (100 ng/well) microtitre plate. Bound peptides were detected by ELISA using rabbit anti-FhHDM-1 as a primary antibody. (B) FhHDM-1 or derived peptides (0.1 μg) were incubated in the presence of LPS (0.05-5 μg/well) and bound peptides measured as described above. Binding of peptides to the LPS-immobilized plates was expressed as a percentage of that measured for 2 μg (for panel A) or 0.1 μg (for panel B) of FhHDM-1. Data are the means±SD from three separate experiments. (C) FhHDM-1 and FhHDM-1 p3 but not FhHDM-1 p1 reduced the interaction between LPS and LBP as effectively as LL-37. LPS-coated microtitre plates were incubated with 5 μg/well of LL-37, FhHDM-1 or derived peptides for 1 h prior to the addition of 10% human sera in PBS. Interaction of LBP with LPS was measured by ELISA using an anti-LBP primary antibody and expressed as a percentage of that detected for 10% sera in the absence of added peptides. Data are the mean±SD of three separate experiments. Statistical significance was calculated using the student t-test and represent a comparison to the binding of 10% sera to immobilized LPS. (D) Binding of FITC-conjugated LPS to RAW264.7 cells was inhibited by LL-37, FhHDM-1 and peptides. […] The binding of FITC-LPS was analyzed by flow cytometry. LPS binding was expressed as a percentage of the mean fluorescence obtained for the addition of FITC-LPS to cells in the absence of peptides. […] Two hours later, sera was collected and serum levels of TNF and (F) IL-10 measured by ELISA. (G) Peritoneal macrophages were isolated, cultured unstimulated in media overnight and then levels of TNF and (H) IL-10 in the culture measured by ELISA. […]
The effect of FhHDM-1 and derived peptides on the binding of FITC-LPS to CD14+ cells was determined by flow cytometry of the murine macrophage cell line RAW264.7. […]

[1] = system: ATPase activity associated with lysosomal membranes (equivalent to vATPase activity); test: ATPase activity of enriched lysosomal membranes; format: biochemical, murine; conditions: lysosomal membranes from RAW264.7 macrophage lysates
Method: FIG. 17 is a graphical representation showing that FhHDM-1 P3 inhibits ATPase activity associated with lysosomal membranes in a concentration-dependent manner. A cellular fraction enriched for lysosomes was prepared by sequential centrifugation of RAW264.7 macrophage lysates. The lysosomal membranes were recovered and assayed (with or without HDM peptides) for ATPase activity using a commercially available kit.
FIG. 18 is a diagrammatic representation showing a sequence alignment of various synthetic HDM peptides. The amphipathic helix is shaded in grey as are the mutated residues in peptides nonHP and 2Pro. NonHP is a variant of FhHDM-1 P3 in which the hydrophobic face of the FhHDM-1 amphipathic helix was removed. 2Pro is a variant of FhHDM-1 P3 in which two prolines substitutions were incorporated to disrupt the alpha-helix. Cons_p3 is a consensus peptide corresponding to various FhHDM-1 homologs. All peptides in the alignment were tested for their ability to inhibit the ATPase activity associated with enriched lysosomal membranes (prepared from RAW macrophages). Those with inhibitory activity are shown in bold text.
A cellular fraction enriched for lysosomes was prepared by sequential centrifugation of RAW264.7 macrophage lysates. The lysosome pellet was extracted with water and the resulting lysosomal membranes were recovered and assayed (with or without HDM peptides) for ATPase activity using a commercially available kit.

[2] = system: primary human macrophages; test: Proteomics analysis of treated macrophages; format: cell-based
Source text: FIG. 11 is a diagrammatic representation showing a Venn diagram of soluble proteins identified in primary human macrophages.

NOD mice = test: Diabetes development in NOD mice (blood glucose); format: in vivo
Method: FIG. 13 is a graphical representation showing that FhHDM-1 protects NOD mice from developing diabetes. FhHDM-1 was given to female NOD mice aged 4 weeks. 10 μg of FhHDM-1 was delivered i.p. in PBS on alternate days for a total of 6 doses. Blood glucose readings were taken weekly and mice with two consecutive readings >14 mmol/L were deemed diabetic.
Female NOD mice (n=10) were given recombinant HDM (10 μg in 100 μL sterile PBS) by intraperitoneal (i.p.) injection on alternate days beginning at 4 weeks of age for a total of 6 injections. Control mice were given 100 μL of sterile PBS on the same days. Blood glucose levels were measured once a week, from the age of 13 weeks, using Accu-check Advantage blood glucose strips (Roche). Animals were sacrificed when they became overtly diabetic; as defined by two random blood glucose concentrations above 12 mM. Statistical analysis of the times the animal was sacrificed was performed using survival analysis.

[3] = of 237 proteins present in both samples

| Molecule | binding of FITC-LPS to RAW264.7 macrophages (RAW264.7 cells) | ATPase activity associated with lysosomal membranes [1] | lysosomal proteins of primary macrophages [2] | number of proteins down-regulated following treatment [2, 3] | number of proteins up-regulated following treatment [2, 3] | KEGG pathways in primary human macrophages (Table 5) ([2]; proteomic analysis) | number of proteins uniquely expressed in the treated sample ([2]; versus PBS-treated sample) | further time the level of protection was sustained (NOD mice; after 18 weeks of age) | normoglycaemic mice (NOD mice; female NOD mice, 10 μg i.p. alternate days x6 from 4 weeks, at 18 weeks of age) |
| --- | --- | --- | --- | --- | --- | --- | --- | --- | --- |
| KARDRAMAYLAKDNLGEKITEVITILLNRL (FhHDM-1 peptide 1 comprising a truncated amphipathic helix contained in FhHDM-1) [FhHDM-1 p1, peptide in which the amphipathic helix is truncated] | reduced binding of FITC-LPS to the cells in a dose-dependent manner albeit to a lesser extent | did not inhibit ATPase activity | – | – | – | – | – | – | – |
| FhHDM-1: 90-residue polypeptide from F. hepatica, Helminth Defense Molecule-1 (SEQ ID NO:24); recombinant form minus N-terminal signal peptide, expressed in E. coli (protein, listed as Fasciola hepatica) MRFIVLLCLAEVLLAAYVEARPSEESREKLRESGRKMVKALRDAVTKAYEKARDRAMAYLAKDNLGEKITEVITILLNRLTDRLEKYAGN | reduced binding of FITC-LPS to the cells in a dose-dependent manner albeit to a lesser extent | did not inhibit ATPase activity | down-regulates | 44 | 42 | down-regulated | 6 | 7 weeks | 80% |
